The target in assay [1] is T1, 4H797-AA.
T1 chain: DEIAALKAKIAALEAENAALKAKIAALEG
The experiment in a line: two-hybrid library CCmax.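 Further: natural log of median RNA to DNA barcode read ratio; higher means stronger binding.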 The settings on record: mean of both orientations.

The target of assay [2] is T2, 4H891-AA.
T2 chain: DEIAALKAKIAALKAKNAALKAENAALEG
Put plainly: two-hybrid library CCmax.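 Further: natural log of median RNA to DNA barcode read ratio; higher means stronger binding.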 The settings on record: mean of both orientations.

Assay [3] has as its target T3, 4H745-AA.
T3 chain: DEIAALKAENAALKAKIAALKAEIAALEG
The experiment in a line: two-hybrid library CCmax.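 Further: natural log of median RNA to DNA barcode read ratio; higher means stronger binding.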

The target of assay [4] is T4, 4H629-AA.
T4 chain: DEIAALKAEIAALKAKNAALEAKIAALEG
The experiment in a line: two-hybrid library CCmax.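 Further: natural log of median RNA to DNA barcode read ratio; higher means stronger binding.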

For assay [5], the target named is T5, 4H94-AA.
T5 chain: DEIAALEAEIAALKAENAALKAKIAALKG
The experiment in a line: two-hybrid library CCmax. The following applies: mean of both orientations.

For assay [6], the target named is T6, 4H536-AA.
T6 chain: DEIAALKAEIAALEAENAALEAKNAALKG
The experiment in a line: two-hybrid library CCmax. The settings on record: mean of both orientations.

The target of assay [7] is T7, 4H930-AA.
T7 chain: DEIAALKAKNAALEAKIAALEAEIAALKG
The experiment in a line: two-hybrid library CCmax. The following applies: mean of both orientations.

Assay [8] has as its target T8, 4H909-AA.
T8 chain: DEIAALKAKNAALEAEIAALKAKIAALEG
Put plainly: two-hybrid library CCmax. The settings on record: mean of both orientations.

The target in assay [9] is T9, 4H570-AA.
T9 chain: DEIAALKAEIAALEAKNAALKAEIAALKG
The experiment in a line: two-hybrid library CCmax. The following applies: mean of both orientations.

Assay [10] concerns the target T10, 4H850-AA.
T10 chain: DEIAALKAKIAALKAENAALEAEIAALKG
The experiment in a line: two-hybrid library CCmax. The settings on record: mean of both orientations.

The target in assay [11] is T11, 4H485-AA.
T11 chain: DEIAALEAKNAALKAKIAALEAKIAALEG
Put plainly: two-hybrid library CCmax.

The target in assay [12] is T12, 4H710-AA.
T12 chain: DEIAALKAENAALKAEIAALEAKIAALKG
Put plainly: two-hybrid library CCmax. The following applies: mean of both orientations.

The target in assay [13] is T13, 4H906-bH.
T13 chain: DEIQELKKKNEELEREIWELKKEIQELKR
The experiment in a line: two-hybrid library CCNG1.

The target in assay [14] is T14, 4H458-AA.
T14 chain: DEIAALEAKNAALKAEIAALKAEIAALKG
The experiment in a line: two-hybrid library CCmax.

Assay [15] addresses T15, 4H454-AA.
T15 chain: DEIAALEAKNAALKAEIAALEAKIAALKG
Put plainly: two-hybrid library CCmax. The following applies: mean of both orientations.

For assay [16], the target named is T16, 4H3655-AA.
T16 chain: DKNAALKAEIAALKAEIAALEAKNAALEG
Put plainly: two-hybrid library CCmax.

Assay [17] has as its target T17, 4H429-AA.
T17 chain: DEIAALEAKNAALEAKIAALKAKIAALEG
Put plainly: two-hybrid library CCmax. The following applies: mean of both orientations.

The target in assay [18] is T18, 4H678-AA.
T18 chain: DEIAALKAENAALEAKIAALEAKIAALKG
Put plainly: two-hybrid library CCmax. The following applies: mean of both orientations.

Assay [19] addresses T19, 4H794-AA.
T19 chain: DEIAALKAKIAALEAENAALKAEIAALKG
Put plainly: two-hybrid library CCmax. The following applies: mean of both orientations.

Assay [20] concerns the target T20, 4H993-AA.
T20 chain: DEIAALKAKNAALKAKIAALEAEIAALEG
The experiment in a line: two-hybrid library CCmax. The settings on record: mean of both orientations.

The target of assay [21] is T21, 4H906-AA.
T21 chain: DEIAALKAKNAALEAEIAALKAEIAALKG
The experiment in a line: two-hybrid library CCmax. The settings on record: mean of both orientations.

Assay [22] deals with T22, 4H780-AA.
T22 chain: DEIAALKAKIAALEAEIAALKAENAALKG
Put plainly: two-hybrid library CCmax. The settings on record: mean of both orientations.

The target of assay [23] is T23, 4H717-AA.
T23 chain: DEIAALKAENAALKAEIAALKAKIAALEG
Put plainly: two-hybrid library CCmax. The settings on record: mean of both orientations.

Assay [24] deals with T24, 4H48-AA.
T24 chain: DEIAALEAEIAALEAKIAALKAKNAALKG
The experiment in a line: two-hybrid library CCmax. The following applies: mean of both orientations.

For assay [25], the target named is T25, 4H566-AA.
T25 chain: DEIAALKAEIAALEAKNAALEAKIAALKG
Put plainly: two-hybrid library CCmax. The settings on record: mean of both orientations.

In assay [26] the target is T26, 4H3921-AA.
T26 chain: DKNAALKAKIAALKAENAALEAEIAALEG
The experiment in a line: two-hybrid library CCmax.

Assay [27] deals with T27, 4H881-AA.
T27 chain: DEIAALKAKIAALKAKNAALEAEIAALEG
The experiment in a line: two-hybrid library CCmax. The following applies: mean of both orientations.

Assay [28] addresses T28, 4H3844-AA.
T28 chain: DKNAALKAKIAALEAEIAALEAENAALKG
Put plainly: two-hybrid library CCmax.

In assay [29] the target is T29, 4H605-AA.
T29 chain: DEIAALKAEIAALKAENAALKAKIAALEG
Put plainly: two-hybrid library CCmax. The following applies: mean of both orientations.

Assay [30] addresses T30, 4H971-AA.
T30 chain: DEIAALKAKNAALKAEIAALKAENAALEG
Put plainly: two-hybrid library CCmax.

Assay [31] addresses T31, 4H675-AA.
T31 chain: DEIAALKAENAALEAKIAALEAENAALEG
The experiment in a line: two-hybrid library CCmax.

Assay [32] has as its target T32, 4H656-AA.
T32 chain: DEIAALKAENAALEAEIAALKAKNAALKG
Put plainly: two-hybrid library CCmax.

For assay [33], the target named is T33, 4H3627-AA.
T33 chain: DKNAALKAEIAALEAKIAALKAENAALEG
Put plainly: two-hybrid library CCmax. The settings on record: mean of both orientations.

Assay [34] has as its target T34, 4H3606-AA.
T34 chain: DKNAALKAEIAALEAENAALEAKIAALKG
Put plainly: two-hybrid library CCmax. The settings on record: mean of both orientations.

In assay [35] the target is T35, 4H3427-AA.
T35 chain: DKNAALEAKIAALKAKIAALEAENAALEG
Put plainly: two-hybrid library CCmax. The following applies: mean of both orientations.

Assay [36] addresses T36, 4H342-AA.
T36 chain: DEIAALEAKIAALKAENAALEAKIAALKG
Put plainly: two-hybrid library CCmax.

The target of assay [37] is T37, 4H982-AA.
T37 chain: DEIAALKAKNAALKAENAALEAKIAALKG
The experiment in a line: two-hybrid library CCmax.

Assay [38] has as its target T38, 4H918-bN.
T38 chain: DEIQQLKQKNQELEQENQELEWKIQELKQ
The experiment in a line: two-hybrid library CCNG1.

Assay [39] has as its target T39, 4H906-bA.
T39 chain: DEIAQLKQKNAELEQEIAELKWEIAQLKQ
The experiment in a line: two-hybrid library CCNG1.

For assay [40], the target named is T40, 4H3865-AA.
T40 chain: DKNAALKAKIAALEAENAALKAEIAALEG
The experiment in a line: two-hybrid library CCmax. The following applies: mean of both orientations.

Assay [41] addresses T41, 4H3753-AA.
T41 chain: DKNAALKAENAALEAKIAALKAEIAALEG
Put plainly: two-hybrid library CCmax.

Like-named read-outs stand apart in the source and are kept apart here.

On to DEIAALEAKNAALKAKIAALEAKIAALEG [4H485-AA], for which the interaction score in [1] is -0.968; in assay [2], -2.05; in assay [3] it was 1.2; in assay [4] (mean of both orientations), -1.15; in assay [5], -1.46; in assay [6], -1.29. Moreover, the interaction score is -0.103 in [7]; -0.153 in assay [8]; -1.69 in assay [9]; 1.97 in [10]; 1.06 in [11]; 1.71 in [12].

As to DEIQELKKKNEELEREIWELKKEIQELKR [4H906-bH], the interaction score in assay [13] was determined as 0.905.

As to DEIAALEAKNAALKAEIAALKAEIAALKG [4H458-AA], the interaction score in [1] is -1.44; in assay [2], -1.67; in assay [3] (mean of both orientations) it was 1.1; in [4] it was -1.64; in assay [5], -1.35; in assay [6], -1.46. For the same molecule, the interaction score in [7] is -0.663; in [8], -0.173; in assay [9], -0.947; in assay [10] it was 1.08; in assay [11] (mean of both orientations), -1.76; in assay [12] it was 1.06. The same molecule yielded an interaction score in [14] of 1.87.

Regarding DKNAALKAEIAALKAEIAALEAKNAALEG [4H3655-AA], the interaction score in [15] was -0.827; in assay [16] it was 0.24; in [17], -1.13; in assay [18], -0.956; in [19], -1.61; in assay [20] it was -1.32. In addition, the interaction score is -1.03 in assay [21]; -1.83 in assay [22]; -1.27 in assay [23]; 0.736 in assay [24]; -1.03 in assay [25]; -1.55 in [26] (mean of both orientations). Besides, the interaction score in [27] was -0.202; in [28] (mean of both orientations), -1.26; in [29] it was -1.25.

On to DEIAALKAKNAALKAEIAALKAENAALEG [4H971-AA], for which the interaction score in assay [30] is -0.816.

For DEIAALKAENAALEAKIAALEAENAALEG [4H675-AA], the interaction score in assay [30] (mean of both orientations) is 0.0439; in assay [31] it was -1.72.

For DEIAALKAENAALEAEIAALKAKNAALKG [4H656-AA], the interaction score in [30] (mean of both orientations) is 1.93; in assay [31] (mean of both orientations) it was 0.797; in assay [32] it was 0.334.

On to DKNAALKAKIAALKAENAALEAEIAALEG [4H3921-AA], for which the interaction score was 0.521 in assay [15]; -0.196 in assay [17]; -1.4 in [18]; -0.924 in [19]; 0.874 in assay [20]; -1.62 in [21]. Further, the interaction score in assay [22] is -1.71; in [23] it was -1.37; in assay [25], 0.811; in assay [26] it was -1.67; in assay [27], -0.834; in assay [29], -0.532.

With DEIAALEAKIAALKAENAALEAKIAALKG [4H342-AA], the interaction score in [33] is 0.447; in assay [15], 2.21; in assay [16] (mean of both orientations), -0.61; in assay [17], -0.49; in assay [18], 0.227; in [19], 1.25. For the same molecule, the interaction score in assay [20] is 1.17; in assay [21] it was -1.52; in [22] it was -1.58; in [23] it was -1.4; in assay [24] it was -0.491; in assay [25], 2.31. The interaction score in assay [34] is 1.55; in [35] it was -1.15; in [26] (mean of both orientations), 0.975; in assay [27] it was 2.49; in assay [28] (mean of both orientations), 0.569; in assay [36], 1.54. This molecule also yielded an interaction score in assay [29] of 1.41.

DKNAALKAKIAALEAEIAALEAENAALKG [4H3844-AA]: the interaction score in [15] is -0.212; in assay [17] it was -0.665; in [18], 0.663; in assay [19] it was -1.33; in assay [20], -1.76; in assay [21], -1.43. Further, the interaction score was 0.995 in assay [22]; -1.65 in [23]; 1.16 in assay [24]; -1.77 in assay [25]; -1.65 in assay [26] (mean of both orientations); -0.992 in [27]. Further, the interaction score in assay [28] was 0.661; in [29], -1.48; in assay [32], -1.07.

The molecule DEIAALKAKNAALKAENAALEAKIAALKG [4H982-AA] showed an interaction score in assay [37] of 0.123.

For the molecule DEIAQLKQKNAELEQEIAELKWEIAQLKQ [4H906-bA], the interaction score in [38] is -0.333; in assay [39], 0.95.

Consider DKNAALKAENAALEAKIAALKAEIAALEG [4H3753-AA], for which the interaction score in assay [1] was -1.42; in assay [40], -1.43; in assay [2], -1.97; in assay [3] (mean of both orientations), -0.67; in assay [4] (mean of both orientations), -1.7; in [5], -1.45. For the same molecule, the interaction score in assay [6] is -1.2; in [41] it was -0.536; in [7], -1.43; in assay [8] it was -0.932; in [9], -1; in [10] it was -2. For the same molecule, the interaction score in assay [11] (mean of both orientations) came to 1.4; in [12], 2.05; in assay [14] (mean of both orientations), 1.56.

Source of the values: paper PMC10397247.
